Patent US10941208B2, “Anti-MUC16 antibodies” (Regeneron Pharmaceuticals, Inc., priority 2016, dated 2021)

How the values were obtained:
[1] = target: T1, hMUC16 endogenously expressed on OVCAR-3 cell line (Homo sapiens, UniProt Q8WXI7); assay: Electrochemiluminescence (MSD) cell binding, OVCAR-3 vs SK-OV-3; conditions: cell-based binding assay
T1 construct: OVCAR-3 cells endogenously express MUC-16; endogenous in cells; host or cells: OVCAR-3 (also luciferase-transduced OVCAR3-Luc)
Experimental: The ability of anti-MUC16 antibodies to bind specifically to endogenously expressing MUC16 on the human ovarian carcinoma cell line (OVCAR-3) was evaluated via an electrochemiluminescence based detection assay (Meso Scale Discovery (MSD), Rockville, Md.). […] Detached cells were then washed once in 1×PBS supplemented with Ca^2+/Mg^2+ and counted (Cellometer Auto T4 cell counter, Nexcelom Bioscience, Lawrence, Mass.). Approximately 1.0×10^4 cells were plated in MULTI-ARRAY 96-well carbon electrode plates (MSD) and incubated for 1 h at 37° C. […] Next, serial dilutions of anti-MUC16 or control antibodies (0.85 pM-50 nM) and no-antibody buffer controls were added to the plate-bound cells and incubated for 1 h at room temperature (RT). […] Plate-bound antibodies were detected with a SULFO-TAG™-conjugated anti-human kappa light chain antibody (Regeneron) or a SULFO-TAG™-conjugated anti-mouse IgG antibody (Jackson Immunoresearch, West Grove, Pa.) for 1 h at RT. Post-wash, plates were developed with Read Buffer (MSD) according to manufacturer's protocol and luminescent signals were recorded with a SECTOR Imager 6000 (MSD) instrument.
Luminescence intensity, measured in relative light units (RLU), for the two cell lines was recorded to indicate the binding intensity of each antibody.

[2] = target: T2, soluble monomeric human MUC16 (hMUC16.mmh, last five SEA domains, SEQ ID: 1902) (Homo sapiens, UniProt Q8WXI7); assay: Surface plasmon resonance (BIACORE) binding to hMUC16 fragment at 25° C.; parameters: key to ka / kd / KD / t 1/2: NB: No binding; conditions: for KD / ka / kd / t 1/2: 25° C.; for binding to soluble truncated human MUC16 protein via surface plasmon resonance (in words): truncated format encompassing the last five SEA domains
T2 construct: mmh (myc-myc-hexahistidine)
Experimental: Antibodies were captured onto a CM4 or CM5 BIACORE sensor surface (GE Healthcare Life Sciences) derivatized via amine coupling with a monoclonal anti-human Fc antibody (GE, # BR-1008-39) or a monoclonal goat anti-mouse Fc antibody (GE, # BR-1008-38). Various concentrations of soluble monomeric human MUC16, in a truncated format encompassing the last five SEA domains of Mucin-16 (hMUC16.mmh, or MUC16 “nub”, SEQ ID: 1902) were injected over the anti-MUC16-antibody captured surface at a flow rate of 50 uL/minute (BIACORE T 200) or 30 uL/minute (BIACORE 4000). Antibody-reagent association was monitored for 4 min and the dissociation was monitored for 6-10 min. All binding studies were performed in HBS-ET buffer (0.01M HEPES pH 7.4, 0.15M NaCl, 0.05% v/v Surfactant P20).
Kinetic association (ka) and dissociation (kd) rate constants were determined by fitting the real-time sensorgrams to a 1:1 binding model using Scrubber 2.0c curve fitting software. Binding dissociation equilibrium constants (KD) and dissociative half-lives (t½) were calculated from the kinetic rate constants as: […]

[3] = Hybridoma anti-MUC16 antibodies (H1M, H2M, H3M), Table 5A
[4] = Human Fc anti-MUC16 antibodies (H1H), Table 5B

T2 sequence (Q8WXI7 with tags, fused parts or gaps): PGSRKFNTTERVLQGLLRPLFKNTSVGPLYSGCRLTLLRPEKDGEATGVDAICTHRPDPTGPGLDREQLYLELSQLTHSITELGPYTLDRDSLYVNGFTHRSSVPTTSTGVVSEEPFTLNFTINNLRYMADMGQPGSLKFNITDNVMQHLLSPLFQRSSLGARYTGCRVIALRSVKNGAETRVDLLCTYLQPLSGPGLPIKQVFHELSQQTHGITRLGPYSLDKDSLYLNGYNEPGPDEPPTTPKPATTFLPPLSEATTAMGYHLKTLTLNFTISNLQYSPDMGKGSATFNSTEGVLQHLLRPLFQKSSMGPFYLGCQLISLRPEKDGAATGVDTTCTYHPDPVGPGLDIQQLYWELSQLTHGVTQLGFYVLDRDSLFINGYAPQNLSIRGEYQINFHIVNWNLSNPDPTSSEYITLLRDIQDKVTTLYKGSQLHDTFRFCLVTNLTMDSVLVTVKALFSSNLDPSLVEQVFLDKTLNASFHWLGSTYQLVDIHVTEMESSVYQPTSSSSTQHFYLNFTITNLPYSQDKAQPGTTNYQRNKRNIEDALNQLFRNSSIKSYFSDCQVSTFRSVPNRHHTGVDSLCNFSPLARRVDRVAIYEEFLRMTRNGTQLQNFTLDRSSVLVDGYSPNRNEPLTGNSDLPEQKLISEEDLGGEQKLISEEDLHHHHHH

| Molecule | specific binding to endogenous human MUC16 expressed on OVCAR-3 cells (in words) [1] | KD [2, 3] | ka [2, 3] | kd [2, 3] | t 1/2 [2, 3] | binding to soluble truncated human MUC16 protein via surface plasmon resonance (in words) [2] | ka [2, 4] [M⁻¹ s⁻¹] | kd [2, 4] [s⁻¹] |
| --- | --- | --- | --- | --- | --- | --- | --- | --- |
| H3M9529N: anti-MUC16 hybridoma antibody, mIgG3; HCVR/LCVR SEQ ID NOs: 378/386 (antibody, V domains shown) VH: QVQLQQWGAGLLKPSETLSLTCAVYGGSFSGFYWSWIRQPPGKGLEWIGEINHSGSAKYNPSLKNRVIISIDTSKNQFSLKLDSVTAADTAVYNCARQGWNFAIFDYWGQGTLVDVSS VL: DIVMTQSPDSLAVSLGGRATINCKSSQSVLHSSYNKDHLAWYQQRPGQPPKLLIYWASTRESGVPDRFSGSGSGTDFTLTISSLQAEDVAVYYCQQYNILPPTFGQGTRVEIK | specific binding | NB | NB | NB | NB | no binding |  |  |
| H1H8755P: anti-MUC16 antibody, human IgG1 Fc; HCVR/LCVR SEQ ID NOs: 2/10 (antibody, V domains shown) VH: EVQLVESGGGLVQPGRSLRLSCAASGFTFNDYAMHWVRQSPGKGLEWVSGIDWNGGSIDYADSVKGRFTISRDTAKNSLYLQMNSLKVEDTALYYCAKDIGHWNYIGGMDVWGQGTTVTVSS VL: DIQMTQSPSSLSASVGDRVTITCRASQSINIYLNWYQQKPGKAPKFLIYAASSLQTGVPSRFSGSGSGTDFTLTISSLEPEDFATYYCQHSYSTPPITFGQGTRLEIK |  |  |  |  |  |  | 522000 | 0.000149 |
| H2M7135N: anti-MUC16 hybridoma antibody, mIgG2; HCVR/LCVR SEQ ID NOs: 298/306 (antibody, V domains shown) VH: EVQLVESGGGLVQAGGSLRLSCAASGFTFSYHEMNWVRQAPGKGLEWVSYIGSRGTTKHYADPVKGRFTISRDNAKNSLYLQMNSLRAEDTAVYYCASEVGSILGYSMDVWGQGTTVTVSS VL: DIQMTQSPSSLSASVGDRVTITCRASQSVSRYLNWCQQKPGKAPKLLTYAASSLQSGVPSRFSGSGSGTDFTLTISSLQPEDFAAYFCQQSYSTPPITFGQGTRLEIK |  |  | 51000 M⁻¹ s⁻¹ | 0.000218 s⁻¹ |  |  |  |  |
| H1H8770P: anti-MUC16 antibody, human IgG1 Fc; HCVR/LCVR SEQ ID NOs: 34/42 (antibody, V domains shown) VH: QVQLVESGGGVVQPGRSLRLSCAASGFTFSDHGMHWVRQAPGKGLEWVAVISYHGSNKHYADSVKGRFTISRDNSKNALYLQMNSLRPEDTAMYYCAKDGYDFWNGYSLFDYWGQGTLVTVSS VL: DIQMTQSPSSLSASVGDRVTITCRASQSISNYLNWYQQKPGKAPKLLIYTASNLLSGVPSRFSGSGSGTDFTLTISSLQPEDFATYYCQQSYSTPPITFGQGTKLEIK |  |  |  |  |  |  | 247000 | 0.000308 |
| H1H8783P: anti-MUC16 antibody, human IgG1 Fc; HCVR/LCVR SEQ ID NOs: 50/58 (antibody, V domains shown) VH: QVQLVESGGGVVQPGRSLRLSCAASGFTFSDHAMHWVRQAPGKGLEWVAVISYHGTDKQYGDSVKGRFTISRDNSKNALYLQMNSLRPEDTAMYYCAKDGYDFWNAYSLFDYWGQGTLVTVSS VL: DIQMTQSPSSLSASVGDRVTITCRASQSISNYLNWYQQKPGKAPKLLIYTASSLLSGVPSRFSGSGSGTDFTLTISSLQPEDFATYYCQQSYSTPPITFGQGTRLEIK |  |  |  |  |  |  | 174000 | 0.000107 |
| H1M9528N: anti-MUC16 hybridoma antibody, mIgG1; HCVR/LCVR SEQ ID NOs: 234/242 (antibody, V domains shown) VH: QMQLQESGPGLVKPSETLSLTCTVSGGSISSYYWNWIRQPPGKGLEWIGYIYYSGNNFNPSLKSRVTISVDTSKNQFSLKLSSVTAADTAVYYCARAFHWNYEFDYWGQGTLVTVSS VL: EIVLTQSPGTLSLSPGERATLSCRASQSVSNNYLAWYQQKPGQAPRLLLYGASSRTTDIPDRFSGSGSGTDFTLTISRLEPEDFAVYYCQQYDNSPLTFGGGTKVEIR | specific binding | NB | NB | NB | NB | no binding |  |  |
| H1H8808P: anti-MUC16 antibody, human IgG1 Fc; HCVR/LCVR SEQ ID NOs: 130/138 (antibody, V domains shown) VH: QVQLVESGGGVVQPGRSLRLSCVASGFTFSNYGIHWVRQAPGKGLEWVAVISDDGSFKFYADSVKGRFTISRDNSKNTLYLQMNSLRVEDSAVYHCAKWQHNWNDGGFDYWGQGTLVTVSS VL: EIVLTQSPDTLSLSPGERATLSCRASQSLSSNYLAWYRQKPGQAPRLLIYGISSRATGIPDRFSGSGSGTDFTLTISRLEPEDFAVYYCQQYGSSPWTFGQGTKVEIK |  |  |  |  |  |  | 4120 | 0.000216 |
